In patent US20140087436:
Where a chain is given by its changes, count along the chain named.

Columns and labels:
Experiment in all cases: EMSA
[1] = target: T1, CbbR G98R (Ralstonia eutropha) (UniProt P42722); conditions: fold change in affinity with 400 uM PEP vs no metabolite; RuBP 1.2, ATP 0.99
T1 sequence: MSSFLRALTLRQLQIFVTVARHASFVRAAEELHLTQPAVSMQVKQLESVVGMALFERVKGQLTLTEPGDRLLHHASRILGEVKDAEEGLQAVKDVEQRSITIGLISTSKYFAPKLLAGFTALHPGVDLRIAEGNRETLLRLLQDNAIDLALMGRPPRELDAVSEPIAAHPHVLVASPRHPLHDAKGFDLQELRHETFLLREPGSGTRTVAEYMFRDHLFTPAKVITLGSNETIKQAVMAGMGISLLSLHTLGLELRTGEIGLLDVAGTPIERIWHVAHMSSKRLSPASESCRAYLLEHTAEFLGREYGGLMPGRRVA

[2] = target: T2, CbbR R154H R154H (Ralstonia eutropha) (UniProt P42722); conditions: fold change in affinity with 400 uM PEP vs no metabolite; RuBP 0.68, ATP 1.2
T2 sequence: T1 sequence with R98G, R154H

[3] = target: T3, CbbR R272Q (Ralstonia eutropha) (UniProt P42722); conditions: fold change in affinity with 400 uM PEP vs no metabolite; RuBP 0.76, ATP 1.4; printed R272O in table
T3 sequence: T1 sequence with R98G, R272Q

[4] = target: T4, CbbR wild type (Ralstonia eutropha) (UniProt P42722); conditions: fold change in affinity with 400 uM PEP vs no metabolite; RuBP 2.3, ATP 3.2, NADPH 1.5, RU5P 0.91, FBP 0.96
T4 sequence: T1 sequence with R98G

[5] = target: T5, CbbR R135C R135C (Ralstonia eutropha) (UniProt P42722); conditions: fold change in affinity with 400 uM PEP vs no metabolite; RuBP 0.59, ATP 1.3
T5 sequence: T1 sequence with R98G, R135C

Substance: cbb promoter probe, 246 bp chromosomal
- binding signal [1]: 2.7 fold
- binding signal [2]: 1.3 fold
- binding signal [3]: 0.85 fold
- binding signal [4]: 3.8 fold
- binding signal [5]: 0.97 fold
